Results: US20240270846A1 (published 2024)
Changes are numbered by the printed parent chain. Numbers in names are those of the source.

B1: CE115HA000/GLS3000 S56Q one-arm antibody (antibody, human IgG1, kappa, L234A L235A, N297A, name in Kabat numbering)
heavy: QVQLVESGGGVVQPGRSLRLSCAASGFTFSNAWMHWVRQAPGKGLEWVAQIKAKSNNYATYYAESVKGRFTISRDDSKNSLYLQMNSLKTEDTAVYYCRYVHYGAYYGVDAWGQGTTVTVSSASTKGPSVFPLAPSSKSTSGGTAALGCLVKDYFPEPVTVSWNSGALTSGVHTFPAVLQSSGLYSLSSVVTVPSSSLGTQTYICNVNHKPSNTKVDKKVEPKSCDKTHTCPPCPAPEAAGGPSVFLFPPKPKDTLMISRTPEVTCVVVDVSHEDPEVKFNWYVDGVEVHNAKTKPREEQYASTYRVVSVLTVLHQDWLNGKEYKCKVSNKALPAPIEKTISKAKGQPREPQVYTLPPSRCELTKNQVSLSCAVKGFYPSDIAVEWESNGQPENNYKTTPPVLDSDGSFFLVSKLTVDKSRWQQGNVFSCSVMHEALHNHYTQKSLSLSPDYKDDDDK
chain: EPKSSDKTHTCPPCPAPELLGGPSVFLFPPKPKDTLMISRTPEVTCVVVDVSHEDPEVKFNWYVDGVEVHNAKTKPREEQYNSTYRVVSVLTVLHQDWLNGKEYKCKVSNKALPAPIEKTISKAKGQPREPQVCTLPPSRDELTKNQVSLWCLVKGFYPSDIAVEWESNGQPENNYKTTPPVLDSDGSFFLYSKLTVDKSRWQQGNVFSCSVMHEALHNRYTQKSLSLSP
light: DIVMTQSPLSLPVTPGEPASISCRSSQSLVHSNRNTYLHWYQQKPGQAPRLLIYKVSNRFQGVPDRFSGSGSGTDFTLKISRVEAEDVGVYYCGQGTQVPYTFGQGTKLEIKRTVAAPSVFIFPPSDEQLKSGTASVVCLLNNFYPREAKVQWKVDNALQSGNSQESVTEQDSKDSTYSLSSTLTLSKADYEKHKVYACEVTHQGLSSPVTKSFNRGEC
notes: one-arm IgG1
B2: CE115HA000/GLS3000 T31E one-arm antibody (antibody, human IgG1, kappa, L234A L235A, N297A, name in Kabat numbering)
heavy: B1 heavy
chain: B1 chain
light: B1 light with T36E, Q61S
notes: one-arm IgG1
B3: CE115HA000/GLS3000 T31I one-arm antibody (antibody, human IgG1, kappa, L234A L235A, N297A, name in Kabat numbering)
heavy: B1 heavy
chain: B1 chain
light: B1 light with T36I, Q61S
notes: one-arm IgG1
B4: CE115HA000/GLS3000 T31N one-arm antibody (antibody, human IgG1, kappa, L234A L235A, N297A, name in Kabat numbering)
heavy: B1 heavy
chain: B1 chain
light: B1 light with T36N, Q61S
notes: one-arm IgG1
B5: CE115HA000/GLS3000 T31D one-arm antibody (antibody, human IgG1, kappa, L234A L235A, N297A, name in Kabat numbering)
heavy: B1 heavy
chain: B1 chain
light: B1 light with T36D, Q61S
notes: one-arm IgG1
B6: CE115HA000/GLS3000 S56T one-arm antibody (antibody, human IgG1, kappa, L234A L235A, N297A, name in Kabat numbering)
heavy: B1 heavy
chain: B1 chain
light: B1 light with Q61T
notes: one-arm IgG1
B7: CE115HA000/GLS3000 Y32F one-arm antibody (antibody, human IgG1, kappa, L234A L235A, N297A, name in Kabat numbering)
heavy: B1 heavy
chain: B1 chain
light: B1 light with Y37F, Q61S
notes: one-arm IgG1
B8: CE115HA000/GLS3000 T31P one-arm antibody (antibody, human IgG1, kappa, L234A L235A, N297A, name in Kabat numbering)
heavy: B1 heavy
chain: B1 chain
light: B1 light with T36P, Q61S
notes: one-arm IgG1
B9: CE115HA000/GLS3000 V94N one-arm antibody (antibody, human IgG1, kappa, L234A L235A, N297A, name in Kabat numbering)
heavy: B1 heavy
chain: B1 chain
light: B1 light with Q61S, V99N
notes: one-arm IgG1
B10: CE115HA000/GLS3000 V51P one-arm antibody (antibody, human IgG1, kappa, L234A L235A, N297A, name in Kabat numbering)
heavy: B1 heavy
chain: B1 chain
light: B1 light with V56P, Q61S
notes: one-arm IgG1
B11: CE115HA000/GLS3000 V94I one-arm antibody (antibody, human IgG1, kappa, L234A L235A, N297A, name in Kabat numbering)
heavy: B1 heavy
chain: B1 chain
light: B1 light with Q61S, V99I
notes: one-arm IgG1
B12: CE115HA000/GLS3000 V94G one-arm antibody (antibody, human IgG1, kappa, L234A L235A, N297A, name in Kabat numbering)
heavy: B1 heavy
chain: B1 chain
light: B1 light with Q61S, V99G
notes: one-arm IgG1
B13: CE115HA000/GLS3000 S56R one-arm antibody (antibody, human IgG1, kappa, L234A L235A, N297A, name in Kabat numbering)
heavy: B1 heavy
chain: B1 chain
light: B1 light with Q61R
notes: one-arm IgG1
B14: CE115HA000/GLS3000 T92D one-arm antibody (antibody, human IgG1, kappa, L234A L235A, N297A, name in Kabat numbering)
heavy: B1 heavy
chain: B1 chain
light: B1 light with Q61S, T97D
notes: one-arm IgG1
B15: CE115HA000/GLS3000 T92A one-arm antibody (antibody, human IgG1, kappa, L234A L235A, N297A, name in Kabat numbering)
heavy: B1 heavy
chain: B1 chain
light: B1 light with Q61S, T97A
notes: one-arm IgG1
B16: CE115HA000/GLS3000 S56V one-arm antibody (antibody, human IgG1, kappa, L234A L235A, N297A, name in Kabat numbering)
heavy: B1 heavy
chain: B1 chain
light: B1 light with Q61V
notes: one-arm IgG1
B17: CE115HA000/GLS3000 V51G one-arm antibody (antibody, human IgG1, kappa, L234A L235A, N297A, name in Kabat numbering)
heavy: B1 heavy
chain: B1 chain
light: B1 light with V56G, Q61S
notes: one-arm IgG1
B18: CE115HA000/GLS3000 V51D one-arm antibody (antibody, human IgG1, kappa, L234A L235A, N297A, name in Kabat numbering)
heavy: B1 heavy
chain: B1 chain
light: B1 light with V56D, Q61S
notes: one-arm IgG1
B19: CE115HA000/GLS3000 V94E one-arm antibody (antibody, human IgG1, kappa, L234A L235A, N297A, name in Kabat numbering)
heavy: B1 heavy
chain: B1 chain
light: B1 light with Q61S, V99E
notes: one-arm IgG1
B20: CE115HA000/GLS3000 S56Y one-arm antibody (antibody, human IgG1, kappa, L234A L235A, N297A, name in Kabat numbering)
heavy: B1 heavy
chain: B1 chain
light: B1 light with Q61Y
notes: one-arm IgG1
B21: CE115HA000/GLS3000 V94D one-arm antibody (antibody, human IgG1, kappa, L234A L235A, N297A, name in Kabat numbering)
heavy: B1 heavy
chain: B1 chain
light: B1 light with Q61S, V99D
notes: one-arm IgG1
B22: CE115HA000/GLS3000 V94A one-arm antibody (antibody, human IgG1, kappa, L234A L235A, N297A, name in Kabat numbering)
heavy: B1 heavy
chain: B1 chain
light: B1 light with Q61S, V99A
notes: one-arm IgG1
B23: CE115HA000/GLS3000 T92I one-arm antibody (antibody, human IgG1, kappa, L234A L235A, N297A, name in Kabat numbering)
heavy: B1 heavy
chain: B1 chain
light: B1 light with Q61S, T97I
notes: one-arm IgG1
B24: CE115HA000/GLS3000 V94L one-arm antibody (antibody, human IgG1, kappa, L234A L235A, N297A, name in Kabat numbering)
heavy: B1 heavy
chain: B1 chain
light: B1 light with Q61S, V99L
notes: one-arm IgG1
B25: CE115HA000/GLS3000 V94K one-arm antibody (antibody, human IgG1, kappa, L234A L235A, N297A, name in Kabat numbering)
heavy: B1 heavy
chain: B1 chain
light: B1 light with Q61S, V99K
notes: one-arm IgG1
B26: CE115HA000/GLS3000 T31K one-arm antibody (antibody, human IgG1, kappa, L234A L235A, N297A, name in Kabat numbering)
heavy: B1 heavy
chain: B1 chain
light: B1 light with T36K, Q61S
notes: one-arm IgG1
B27: CE115HA000/GLS3000 V94H one-arm antibody (antibody, human IgG1, kappa, L234A L235A, N297A, name in Kabat numbering)
heavy: B1 heavy
chain: B1 chain
light: B1 light with Q61S, V99H
notes: one-arm IgG1
B28: CE115HA000/GLS3000 V94F one-arm antibody (antibody, human IgG1, kappa, L234A L235A, N297A, name in Kabat numbering)
heavy: B1 heavy
chain: B1 chain
light: B1 light with Q61S, V99F
notes: one-arm IgG1
B29: CE115HA000/GLS3000 Y32D one-arm antibody (antibody, human IgG1, kappa, L234A L235A, N297A, name in Kabat numbering)
heavy: B1 heavy
chain: B1 chain
light: B1 light with Y37D, Q61S
notes: one-arm IgG1
B30: CE115HA000/GLS3000 T92L one-arm antibody (antibody, human IgG1, kappa, L234A L235A, N297A, name in Kabat numbering)
heavy: B1 heavy
chain: B1 chain
light: B1 light with Q61S, T97L
notes: one-arm IgG1
B31: CE115HA000/GLS3000 S56W one-arm antibody (antibody, human IgG1, kappa, L234A L235A, N297A, name in Kabat numbering)
heavy: B1 heavy
chain: B1 chain
light: B1 light with Q61W
notes: one-arm IgG1
B32: CE115HA000/GLS3000 T92E one-arm antibody (antibody, human IgG1, kappa, L234A L235A, N297A, name in Kabat numbering)
heavy: B1 heavy
chain: B1 chain
light: B1 light with Q61S, T97E
notes: one-arm IgG1
B33: CE115HA000/GLS3000 V94M one-arm antibody (antibody, human IgG1, kappa, L234A L235A, N297A, name in Kabat numbering)
heavy: B1 heavy
chain: B1 chain
light: B1 light with Q61S, V99M
notes: one-arm IgG1
B34: CE115HA000/GLS3000 V51E one-arm antibody (antibody, human IgG1, kappa, L234A L235A, N297A, name in Kabat numbering)
heavy: B1 heavy
chain: B1 chain
light: B1 light with V56E, Q61S
notes: one-arm IgG1
B35: CE115HA000/GLS3000 V51I one-arm antibody (antibody, human IgG1, kappa, L234A L235A, N297A, name in Kabat numbering)
heavy: B1 heavy
chain: B1 chain
light: B1 light with V56I, Q61S
notes: one-arm IgG1

The binders below were run against T1, CD3 epsilon homodimer protein (UniProt P07766 23-126) (assay: SPR (Biacore T200), CD3e homodimer on CM4 chip, antibody as analyte; KD ratio vs unaltered GLS3000;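 note: CD3 epsilon homodimer amine-coupled to the sensor surface, antibodies injected as analyte at 25 °C with HBS-EP+ running buffer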).
T1 construct: also called CD3 (CD3 epsilon)
T1 sequence (P07766 23-126): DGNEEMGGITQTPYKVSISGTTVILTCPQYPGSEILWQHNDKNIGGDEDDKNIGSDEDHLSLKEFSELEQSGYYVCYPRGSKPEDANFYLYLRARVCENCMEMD
B1 was tested, and the “KD ratio to GLS3000” value was 0.97 ratio. B2 was tested, and the “KD ratio to GLS3000” value was 1.59 ratio. For B3, the “KD ratio to GLS3000” value was 1.1 ratio. With B4 the “KD ratio to GLS3000” value was 4.46 ratio. With B5 the “KD ratio to GLS3000” value was 30.9 ratio. B6 was tested, and the “KD ratio to GLS3000” value was 1.01 ratio. B7 was tested, and the “KD ratio to GLS3000” value was 4.51 ratio. In the case of B8, the “KD ratio to GLS3000” value is reported as 10.8 ratio. For B9, the “KD ratio to GLS3000” value was 0.96 ratio. In the case of B10, the “KD ratio to GLS3000” value is reported as 6 ratio. With B11 the “KD ratio to GLS3000” value was 1.46 ratio. For B12, the “KD ratio to GLS3000” value was 2.59 ratio. In the case of B13, the “KD ratio to GLS3000” value is reported as 1.15 ratio. B14 was tested, and the “KD ratio to GLS3000” value was 11.2 ratio. B15 was tested, and the “KD ratio to GLS3000” value was 1.35 ratio. With B16 the “KD ratio to GLS3000” value was 0.94 ratio. For B17, the “KD ratio to GLS3000” value was 0.83 ratio. B18 was tested, and the “KD ratio to GLS3000” value was 1.5 ratio. With B19 the “KD ratio to GLS3000” value was 1.18 ratio. For B20, the “KD ratio to GLS3000” value was 1.1 ratio. For B21, the “KD ratio to GLS3000” value was 1.05 ratio. In the case of B22, the “KD ratio to GLS3000” value is reported as 1.05 ratio. With B23 the “KD ratio to GLS3000” value was 1.91 ratio. For B24, the “KD ratio to GLS3000” value was 3.06 ratio. In the case of B25, the “KD ratio to GLS3000” value is reported as 0.91 ratio. B26 was tested, and the “KD ratio to GLS3000” value was 0.88 ratio. In the case of B27, the “KD ratio to GLS3000” value is reported as 1.16 ratio. For B28, the “KD ratio to GLS3000” value was 1.75 ratio. In the case of B29, the “KD ratio to GLS3000” value is reported as 25.9 ratio. In the case of B30, the “KD ratio to GLS3000” value is reported as 1.61 ratio. In the case of B31, the “KD ratio to GLS3000” value is reported as 1.12 ratio. For B32, the “KD ratio to GLS3000” value was 19.6 ratio. With B33 the “KD ratio to GLS3000” value was 2.74 ratio. In the case of B34, the “KD ratio to GLS3000” value is reported as 0.88 ratio. With B35 the “KD ratio to GLS3000” value was 0.69 ratio.
